The values below come from US20110159050A1, “AMPHIPHILIC PROTEINS AS MORPHOLOGY MODIFIERS” (BASF SE, priority 2008, published 2011).

Entries after “also recorded” stand apart in the source; their conditions may differ.

Data set [1] is described as follows: Crystallisation of paracetamol in presence of hydrophobins (cooling from 95° C. to RT, visual assessment). It is filed as physicochemical. The following applies: 100 ppm protein; for visual assessment after 0 min (protein without API; no clouding = no denaturation): no API present, 95° C.; for visual assessment after 0 min / visual assessment <5 min: paracetamol present; for visual assessment after 0 min: after injection at 95° C.; for visual assessment <5 min: cooling at RT. On the procedure:
The hydrophobin solution is prepared by solubilization of 10 mg of lyophilized powder (protein content at least 60-80%) in 1 mL pure water. Insoluble residues are removed by centrifugation.
15 g of API (Paracetamol, Sigma) are dissolved in 150 mL pure water. Aliquots of 10 mL of the resulting solution are transferred into 15 mL sealable polypropylene tubes that have been pre-heated to 95° C. in order to prevent the onset of crystallization. To ensure uniform temperature, the tubes are shaken for 15-30 min at 95° and 750 rpm on a thermomixer (Eppendorf Thermomixer Comfort), then 100 μL of the hydrophobin solution is added under continued mixing at 95° C.; final protein concentration in the sample is 100 ppm. After 1-2 min the tubes are withdrawn from the thermomixer to allow cooling without shaking at RT. Control samples are treated in the same way except that 100 μL of pure water are added instead of the hydrophobin solution, or no API is present.

The nature of data set [2]: Crystallisation of benzamide in presence of SC, PO, TT or TR (cooling, visual assessment). Type of data set: physicochemical. The settings on record: 100 ppm protein. On the procedure: 15 g of benzamide (Fluke) are dissolved in 150 mL pure water. Aliquots of 10 mL of the resulting solution are transferred into 15 mL sealable polypropylene tubes that have been pre-heated to 95° C. in order to prevent the onset of crystallization. To assure uniform temperature, the tubes are shaken for 15-30 min at 95° and 750 rpm on a thermomixer (Eppendorf Thermomixer Comfort), then 100 μL of the hydrophobin solution (prepared according to the method given in example 1) is added (the tubes are still shaken to allow homogeneous mixing and tempering). After 1-2 min the tubes are withdrawn from the thermomixer to allow cooling without shaking at RT. Control samples are treated in the same way except that 100 μL of pure water are added instead of the hydrophobin solution, or no API is present.
(§1) The results of a visual assessment after the hydrophobin injection (final concentration in the sample is 100 ppm) are compiled in the following table.

Data set [3] can be described thus: Crystallisation and redispersion of Venlafaxine (IPA, visual assessment). Type of data set: physicochemical. The settings on record: for re-suspension on pouring after vigorous shaking (Vortex) for 10-15 sec: Venlafaxine crystallized over night; for (RT) dispersability: Venlafaxine crystals. On the procedure: 15 g of Venlafaxine (Ciba) are dissolved in 150 mL IPA. Aliquots of 10 mL of the resulting solution are transferred into 15 mL sealable polypropylene tubes that have been pre-heated to 95° C. To assure uniform temperature, the tubes are agitated for 15-30 min at 80° and 750 rpm on a thermomixer (Eppendorf Thermomixer Comfort), then 100 μL of the protein solution (prepared according to the method given in example 1) is added. Control samples are treated in the same way except that 100 μL of pure water are added instead of the hydrophobin solution, or no API is present.
as §1
The mother liquor crystallizes completely over night, with crystals adhering together covered by the solvent.

Data set [4] can be described thus: Crystallisation of Atorvastatin by evaporation in dishes, microscopic inspection. Type of data set: physicochemical. The settings on record: Atorvastatin in water/acetonitrile, 100 ppm hydrophobin, vs hydrophobin-free control. On the procedure:
a) 15 g of Atorvastatin (Ciba) are dissolved in 75 mL pure water and 75 mL acetonitrile by heating to 50° C. and stirring for 2 h. The resulting solution is filtered (0.45 μm). Aliquots of 10 mL are transferred into 15 mL sealable polypropylene tubes that have been pre-heated to 50° C. in order to prevent the onset of crystallization. To assure uniform temperature, the tubes are shaken for 15-30 min at 50° and 750 rpm on a thermomixer (Eppendorf Thermomixer Comfort), then 100 μL of the protein solution (prepared according to the method given in example 1) is added (final concentration: 100 ppm). Control samples are treated in the same way except that 100 μL of pure water are added instead of the hydrophobin solution, or no API is present.
1 mL of each sample is poured into dishes (Ø5 cm) in order to allow crystallization by evaporation. The dried crystals (˜20 h later) are microscopically inspected.

Data set [5] in a line: Atorvastatin crystallisation by evaporation on protein-coated object slides. Type of data set: physicochemical. The following applies: object slides coated with protein (100 μg protein/mL over night), vs non-coated control. Here is the method:
b) In a further set of tests, object slides are coated with protein by incubation in a solution as prepared according to the method given in example 1 (100 μg protein/mL) over night. The object slides then are washed and air dried before 50 μL of Atorvastatin solution as described above is coated on the slide.

For data set [6] the following is noted: from 72; at 50 microgram/ml; cited from earlier work.
Where [7] appears, read: Venlafaxine in IPA, 100 ppm protein.

B1: PO: class I hydrophobin from Pleurotus ostreatus, produced recombinantly in E. coli (protein, UniProt O60048 22-113, looked up)
Class I hydrophobin POH3: IPRTNPPAPTCTTGSLQCCNSVQAASNPVVGLLAGLLGIVLGPITGQVGLTCSPITVIGVGGTSCSAQTVCCNGNSFNGLIVVGCSPVNISL
modifications: recombinant in E. coli
B1: in data set [1], the “visual assessment after 0 min (protein without API; no clouding = no denaturation)” value is “clear”, the “visual assessment after 0 min” value is “clouding” and the “visual assessment <5 min” value is listed as “few crystals”. Moreover, in data set [1] (paracetamol), the “crystal size 15 min” value is recorded as “cryst. 0.2-0.5 mm”, the “crystal size <5 min” value is on record as 0.2-0.5 mm and the “crystal size >20 h” value is reported as “crystals 0.5-1 mm”. Also, in data set [2], the “crystal size 15 min” value is listed as “crystals 0.2-0.5 mm”, the “crystal size <5 min” value is listed as 0.2-0.5 mm, the “crystal size >20 h” value is “crystals 0.5-1 mm” and the “visual assessment <5 min” value is listed as “few crystals”. For the same molecule, the “visual assessment after 0 min” value in data set [2] is listed as “clouding”. Moreover, in data set [3], the “re-suspension on pouring after vigorous shaking (Vortex) for 10-15 sec” value is listed as “predominantly the remaining mother liquor is poured out” and the “(RT) dispersability” value is “poor”. Besides, in data set [3] (setting [7]), the “crystal size 20 min” value is given as “crystals 0.2 mm”, the “crystal size <5 min” value is given as “crystals 0.1 mm”, the “visual assessment 120 min” value was “crystals” and the “visual assessment after 0 min” value is “clouding”. Also, in data set [4], the “crystal growth after crystallization by evaporation” value was “more evenly crystal growth”. Besides, in data set [5], the “crystal growth by evaporation on coated glass surface” value is given as “more regular crystal growth; also recorded: more evenly crystal growth”.

B2: SC: class I hydrophobin from Schizophyllum commune, produced recombinantly in E. coli (protein, UniProt P16933 25-136, looked up)
Class I hydrophobin SC3: GGHPGTTTPPVTTTVTVTTPPSTTTIAAGGTCTTGSLSCCNQVQSASSSPVTALLGLLGIVLSDLNVLVGISCSPLTVIGVGGSGCSAQTVCCENTQFNGLINIGCTPINIL
modifications: recombinant in E. coli
For B2, in data set [1], the “visual assessment after 0 min (protein without API; no clouding = no denaturation)” value is on record as “clear”, the “visual assessment after 0 min” value is on record as “streaks” and the “visual assessment <5 min” value is “clear”. Further, in data set [1] (paracetamol), the “crystal size 15 min” value is given as “cryst. 0.1-0.2 mm” and the “crystal size >20 h” value is recorded as “crystals 0.5 mm”. In data set [2], the “crystal size 15 min” value was “crystals 0.1-0.2 mm”, the “crystal size <5 min” value is on record as 0.1-0.2 mm, the “crystal size >20 h” value is given as “crystals 0.5-1 mm” and the “visual assessment <5 min” value is “few crystals”. Further, the “visual assessment after 0 min” value in data set [2] was “clouding”. Further, in data set [3], the “re-suspension on pouring after vigorous shaking (Vortex) for 10-15 sec” value is “complete emptying of the tubes”; the “(RT) dispersability” value is “Best dispersability and best”. In data set [3] (setting [7]), the “visual assessment 20 min” value is “clear”, the “visual assessment 120 min” value is given as “crystals”, the “visual assessment <5 min” value was “clear” and the “visual assessment after 0 min” value is reported as “streaks”. In addition, in data set [4], the “crystal growth after crystallization by evaporation” value was “more evenly crystal growth”. The “crystal growth by evaporation on coated glass surface” value in data set [5] is on record as “more regular crystal growth; also recorded: more evenly crystal growth”. For the same molecule, the “maximal lowering of the water surface tension” value in data set [6] is recorded as 24 mJ m^−2.
